The values that follow come from the supplement of paper PMC10567573.

B1: CDC14A (parent)
chain: LWVQGDIFRSKLKNRPSSEGSINK
B2: CCDC70 (parent)
chain: FSFKVSRWMGLACFRSLAASSPSI
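Further: lentivirally expressed fusions sorted by FACS into six bins by GFP to DsRed ratio, PSI derived from sequencing read proportions per bin multiplied by bin number.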

One series covers variants of B1. As to the kind of experiment: protein stability index of a GFP-peptide fusion (GPS, HEK-293T) (PSI 1-6); higher = more stable. As to conditions: c terminus: a fixed tail appended.
As to LWVQGDIFRSKLKNRPSSEGSILK [N23L], the protein stability index worked out at 2.1. Same read-out and setting: the figure for LWVQGDIFRSKLKNRPSSEGSIRK [N23R] is 2.4. On the same count and under the same terms, the figure for LWVQGDIFRSKLKNRPSSEGSIYK [N23Y] is 1.91. Same read-out and setting: the figure for LWVQGDIFRSKLKNRPSSEGSISK [N23S] is 2.96; for LWVQGDIFRSKLKNRYSSEGSINK [P16Y] it is 1.91; for LWVQGDIFRSKLKNRMSSEGSINK [P16M] it is 2.17. For LWVQGDIFRSKLKNRSSSEGSINK [P16S], the protein stability index worked out at 2.52. With LWVQGDIFRSKLKNRRSSEGSINK [P16R], the protein stability index is 2.7.

In the case of NWVQGDIFRSKLKNRPSSEGSINK [L1N], the protein stability index worked out at 4.3. For FWVQGDIFRSKLKNRPSSEGSINK [L1F], the protein stability index was found to be 1.75.

Take EWVQGDIFRSKLKNRPSSEGSINK [L1E]: the protein stability index amounted to 4.43.

As to VWVQGDIFRSKLKNRPSSEGSINK [L1V], the protein stability index amounted to 2.2. Consider RWVQGDIFRSKLKNRPSSEGSINK [L1R], for which the protein stability index is 4.17. Still for that read-out and setting: the figure for LWVQGDIFRSKKKNRPSSEGSINK [L12K] is 3.16. On the same count and under the same terms, the figure for LWVQGDIFRSKIKNRPSSEGSINK [L12I] is 2.8; for LWVQLDIFRSKLKNRPSSEGSINK [G5L] it is 2.92. Regarding LWVQQDIFRSKLKNRPSSEGSINK [G5Q], the protein stability index amounted to 2.76. The same measure, in the same setting: the figure for LWVQSDIFRSKLKNRPSSEGSINK [G5S] is 2.52; for LWVQFDIFRSKLKNRPSSEGSINK [G5F] it is 2.59; for LWVQGDIFRSKLKNRPSSCGSINK [E19C] it is 2.44. The same measure, in the same setting: the figure for LWVQGDIFRSKLKNRPSSMGSINK [E19M] is 2.02; for LWVQGDIFRSKLKNRPSSWGSINK [E19W] it is 1.88. Still for that read-out and setting: the figure for LWVQGDIFRSKLKNRPSSEWSINK [G20W] is 2.03; for LWVQGDIFRSKLKNRPSSEFSINK [G20F] it is 2.3; for LWVQGDIFRSKLKNRPSSENSINK [G20N] it is 2.76. Take LWVQGDIFRSKLKNRPSSESSINK [G20S]: the protein stability index was 2.58. On the same count and under the same terms, the figure for LWVQGDIFRSKLKNRPSSEKSINK [G20K] is 3.44.

LWVQGDIFRSMLKNRPSSEGSINK [K11M]: the protein stability index was determined as 2.49. Still for that read-out and setting: the figure for LWVQGDIFRSNLKNRPSSEGSINK [K11N] is 3; for LWVQGDIFRSILKNRPSSEGSINK [K11I] it is 1.66. Regarding LWVQGDIFRSCLKNRPSSEGSINK [K11C], the protein stability index came to 2.22. As for LWVQGDIFRSWLKNRPSSEGSINK [K11W], the protein stability index was 2.04. For the variant LWVQGDDFRSKLKNRPSSEGSINK [I7D], the protein stability index stood at 3.35. Same read-out and setting: the figure for LWVQGDEFRSKLKNRPSSEGSINK [I7E] is 3.71. Still for that read-out and setting: the figure for LWVQGSIFRSKLKNRPSSEGSINK [D6S] is 2.28.

Consider LWVQGCIFRSKLKNRPSSEGSINK [D6C], for which the protein stability index came out at 1.8. LWVQGHIFRSKLKNRPSSEGSINK [D6H]: the protein stability index turned out to be 2.24. As to LWVQGDIFRSKLFNRPSSEGSINK [K13F], the protein stability index was 1.68. Take LWVQGDIFRSKLPNRPSSEGSINK [K13P]: the protein stability index worked out at 3.01. On the same count and under the same terms, the figure for LWVQGDIFRSKLINRPSSEGSINK [K13I] is 2.15. As for LWVQGDIFRSKLVNRPSSEGSINK [K13V], the protein stability index is 2.41. As to LWVQGDIFRSKLKNRPSSEGSINC [K24C], the protein stability index is 1.93.

With LWVQGDIFRSKLKNRPSSEGSINI [K24I], the protein stability index was 1.8. As to LWVQGDIFRSKLKNRPSSEGSINM [K24M], the protein stability index was found to be 2.08. Still for that read-out and setting: the figure for LWVQGDIFRSKLKNRPSSEGSINH [K24H] is 2.06; for LWVQGDIFRSKLKNRPSSEGSINR [K24R] it is 2.52; for LWVQGDIFRSKLKNRPSSEGSIND [K24D] it is 2.79. In the case of LWVQGDILRSKLKNRPSSEGSINK [F8L], the protein stability index is 2.75. On the same count and under the same terms, the figure for LWVQGDICRSKLKNRPSSEGSINK [F8C] is 3.14; for LWVQGDIFRSKLKNRPSNEGSINK [S18N] it is 2.54. Same read-out and setting: the figure for LWVQGDIFRSKLKNRPSQEGSINK [S18Q] is 2.39; for LWVQGDIFRSKLKNRPSPEGSINK [S18P] it is 1.91. Same read-out and setting: the figure for LWVQGDIFRSKLKNRPSVEGSINK [S18V] is 2.25; for LWVQGDIFRSKLKNRPSDEGSINK [S18D] it is 3.11; for LWVQGDIFRSKLKNRPSYEGSINK [S18Y] it is 2.01.

For the variant LLVQGDIFRSKLKNRPSSEGSINK [W2L], the protein stability index was found to be 2.98. In the case of LFVQGDIFRSKLKNRPSSEGSINK [W2F], the protein stability index was found to be 3.07.

As to LAVQGDIFRSKLKNRPSSEGSINK [W2A], the protein stability index came to 4.05. In the case of LWVQGDIFRSKLKNRPLSEGSINK [S17L], the protein stability index was 2.63.

For LWVQGDIFRSKLKNRPTSEGSINK [S17T], the protein stability index turned out to be 2.82.

On to LWVQGDIFRSKLKNVPSSEGSINK [R15V], for which the protein stability index stood at 2.78. Regarding LWVTGDIFRSKLKNRPSSEGSINK [Q4T], the protein stability index was found to be 2.41. Turning to LWVHGDIFRSKLKNRPSSEGSINK [Q4H], the protein stability index came to 2.67. Same read-out and setting: the figure for LWVVGDIFRSKLKNRPSSEGSINK [Q4V] is 1.81; for LWVPGDIFRSKLKNRPSSEGSINK [Q4P] it is 2.74.

Consider LWVQGDIFRSKLKNRPSSEGSMNK [I22M], for which the protein stability index was found to be 3.02. Still for that read-out and setting: the figure for LWVQGDIFRSKLKNRPSSEGSCNK [I22C] is 2.59; for LWVQGDIFRSKLKNRPSSEGSDNK [I22D] it is 3.2; for LWVQGDIFRSKLKNRPSSEGSHNK [I22H] it is 3.32. Same read-out and setting: the figure for LWVQGDIFWSKLKNRPSSEGSINK [R9W] is 1.88; for LWVQGDIFSSKLKNRPSSEGSINK [R9S] it is 2.6.

In the case of LWVQGDIFRIKLKNRPSSEGSINK [S10I], the protein stability index is 2.31. Same read-out and setting: the figure for LWKQGDIFRSKLKNRPSSEGSINK [V3K] is 3.26. Same read-out and setting: the figure for LWPQGDIFRSKLKNRPSSEGSINK [V3P] is 3.94; for LWQQGDIFRSKLKNRPSSEGSINK [V3Q] it is 3.32; for LWVQGDIFRSKLKYRPSSEGSINK [N14Y] it is 2.53.

In the case of LWVQGDIFRSKLKDRPSSEGSINK [N14D], the protein stability index stood at 2.67. Same read-out and setting: the figure for LWVQGDIFRSKLKNRPSSEGQINK [S21Q] is 3.15. The same measure, in the same setting: the figure for LWVQGDIFRSKLKNRPSSEGPINK [S21P] is 3.06.

The variants in a further series derive from B2. The description is as above. To be noted: c terminus: a fixed tail appended.
As to FSFKVSEWMGLACFRSLAASSPSI [R7E], the protein stability index was found to be 3.4.

Take FSFKVSDWMGLACFRSLAASSPSI [R7D]: the protein stability index is 2.9. Still for that read-out and setting: the figure for FSFKVSFWMGLACFRSLAASSPSI [R7F] is 2.69; for FSFKVSGWMGLACFRSLAASSPSI [R7G] it is 1.65. The same measure, in the same setting: the figure for FSFKVSCWMGLACFRSLAASSPSI [R7C] is 3.09. Same read-out and setting: the figure for FSFKVSAWMGLACFRSLAASSPSI [R7A] is 2.22; for FSFKVSHWMGLACFRSLAASSPSI [R7H] it is 3.25; for ASFKVSRWMGLACFRSLAASSPSI [F1A] it is 2.36. On to CSFKVSRWMGLACFRSLAASSPSI [F1C], for which the protein stability index is 2.38. The same measure, in the same setting: the figure for YSFKVSRWMGLACFRSLAASSPSI [F1Y] is 2.33; for TSFKVSRWMGLACFRSLAASSPSI [F1T] it is 2.53; for LSFKVSRWMGLACFRSLAASSPSI [F1L] it is 4.16. Consider SSFKVSRWMGLACFRSLAASSPSI [F1S], for which the protein stability index was 1.38.

For the variant MSFKVSRWMGLACFRSLAASSPSI [F1M], the protein stability index amounted to 4.47. Still for that read-out and setting: the figure for KSFKVSRWMGLACFRSLAASSPSI [F1K] is 2.46.
